According to patent US20240201167A1 (ALBERT EINSTEIN COLLEGE OF MEDICINE, published 2024):

Legend:
[1] = target: T1, Sortilin expressed on cells (UniProt Q99523 78-831, limits assumed); assay: cell-cell binding
T1 construct: whole, on cells

[2] = target: T2, SorCS1 expressed on cells (UniProt Q8WY21 34-1168, limits assumed); assay: cell-cell binding
T2 construct: whole, on cells
T2 sequence (looked up): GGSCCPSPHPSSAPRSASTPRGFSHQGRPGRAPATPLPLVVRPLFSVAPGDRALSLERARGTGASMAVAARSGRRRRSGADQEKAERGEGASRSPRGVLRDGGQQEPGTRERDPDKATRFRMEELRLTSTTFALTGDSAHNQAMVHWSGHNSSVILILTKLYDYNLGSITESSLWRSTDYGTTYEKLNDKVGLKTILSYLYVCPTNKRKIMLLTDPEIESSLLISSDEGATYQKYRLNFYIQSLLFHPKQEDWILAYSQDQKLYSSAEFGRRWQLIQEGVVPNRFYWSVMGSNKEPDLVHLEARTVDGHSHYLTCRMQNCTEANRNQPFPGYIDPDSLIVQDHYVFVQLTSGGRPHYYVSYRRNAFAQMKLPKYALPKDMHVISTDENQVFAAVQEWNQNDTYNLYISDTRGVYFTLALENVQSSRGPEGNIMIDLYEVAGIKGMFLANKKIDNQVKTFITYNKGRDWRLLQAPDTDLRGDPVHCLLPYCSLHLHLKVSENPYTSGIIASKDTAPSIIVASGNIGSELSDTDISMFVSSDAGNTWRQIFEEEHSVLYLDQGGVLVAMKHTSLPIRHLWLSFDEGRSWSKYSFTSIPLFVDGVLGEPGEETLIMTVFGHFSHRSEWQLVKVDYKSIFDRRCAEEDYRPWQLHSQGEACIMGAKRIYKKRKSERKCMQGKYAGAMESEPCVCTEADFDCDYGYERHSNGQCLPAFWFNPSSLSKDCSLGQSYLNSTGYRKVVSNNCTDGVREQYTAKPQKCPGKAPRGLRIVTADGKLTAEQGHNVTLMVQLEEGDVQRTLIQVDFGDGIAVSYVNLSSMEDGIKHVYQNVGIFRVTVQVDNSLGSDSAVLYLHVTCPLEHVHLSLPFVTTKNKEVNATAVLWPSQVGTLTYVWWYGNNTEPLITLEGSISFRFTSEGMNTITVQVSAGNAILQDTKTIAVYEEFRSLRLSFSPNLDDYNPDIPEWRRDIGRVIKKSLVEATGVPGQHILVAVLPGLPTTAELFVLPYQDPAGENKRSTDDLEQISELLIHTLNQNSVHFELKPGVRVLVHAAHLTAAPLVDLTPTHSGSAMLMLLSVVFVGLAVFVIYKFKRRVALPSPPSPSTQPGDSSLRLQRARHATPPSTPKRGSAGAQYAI

[3] = target: T3, SorCS2 expressed on cells (UniProt Q96PQ0 51-1159, limits assumed); assay: cell-cell binding
T3 construct: whole, on cells

[4] = target: T4, SorCS3 expressed on cells (UniProt Q9UPU3 134-1222, limits assumed); assay: cell-cell binding
T4 construct: whole, on cells
T4 sequence (looked up): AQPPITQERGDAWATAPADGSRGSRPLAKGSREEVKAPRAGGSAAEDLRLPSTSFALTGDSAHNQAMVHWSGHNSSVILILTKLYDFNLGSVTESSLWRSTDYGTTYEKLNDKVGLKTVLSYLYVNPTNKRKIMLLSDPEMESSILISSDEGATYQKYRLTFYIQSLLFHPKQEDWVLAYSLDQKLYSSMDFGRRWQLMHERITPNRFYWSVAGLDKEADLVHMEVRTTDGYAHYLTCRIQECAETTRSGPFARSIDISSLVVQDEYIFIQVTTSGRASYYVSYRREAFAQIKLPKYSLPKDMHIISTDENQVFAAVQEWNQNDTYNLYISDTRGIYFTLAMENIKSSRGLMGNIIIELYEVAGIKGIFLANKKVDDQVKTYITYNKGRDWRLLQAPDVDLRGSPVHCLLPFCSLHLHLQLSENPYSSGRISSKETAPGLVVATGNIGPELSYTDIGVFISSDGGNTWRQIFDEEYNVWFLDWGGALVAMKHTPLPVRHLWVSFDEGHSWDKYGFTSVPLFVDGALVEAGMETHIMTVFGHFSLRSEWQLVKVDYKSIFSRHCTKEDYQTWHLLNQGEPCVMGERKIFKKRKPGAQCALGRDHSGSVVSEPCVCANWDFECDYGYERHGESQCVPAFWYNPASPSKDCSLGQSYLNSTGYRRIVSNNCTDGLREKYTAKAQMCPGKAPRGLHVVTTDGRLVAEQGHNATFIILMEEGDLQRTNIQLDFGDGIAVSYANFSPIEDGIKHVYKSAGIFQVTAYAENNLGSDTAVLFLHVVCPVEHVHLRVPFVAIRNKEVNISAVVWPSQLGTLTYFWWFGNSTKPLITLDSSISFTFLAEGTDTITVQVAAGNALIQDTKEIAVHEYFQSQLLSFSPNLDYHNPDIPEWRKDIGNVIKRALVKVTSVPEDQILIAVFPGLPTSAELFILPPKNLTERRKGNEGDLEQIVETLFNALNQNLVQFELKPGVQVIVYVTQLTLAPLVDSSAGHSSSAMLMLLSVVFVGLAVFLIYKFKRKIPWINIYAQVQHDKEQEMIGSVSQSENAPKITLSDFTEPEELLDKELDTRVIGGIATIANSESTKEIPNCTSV

TNFR2 expressed on cells = target: T5, TNFR2 expressed on cells (human, UniProt P20333 23-461); assay: cell-cell screen, flow cytometry
T5 construct: whole, on cells
T5 sequence (looked up): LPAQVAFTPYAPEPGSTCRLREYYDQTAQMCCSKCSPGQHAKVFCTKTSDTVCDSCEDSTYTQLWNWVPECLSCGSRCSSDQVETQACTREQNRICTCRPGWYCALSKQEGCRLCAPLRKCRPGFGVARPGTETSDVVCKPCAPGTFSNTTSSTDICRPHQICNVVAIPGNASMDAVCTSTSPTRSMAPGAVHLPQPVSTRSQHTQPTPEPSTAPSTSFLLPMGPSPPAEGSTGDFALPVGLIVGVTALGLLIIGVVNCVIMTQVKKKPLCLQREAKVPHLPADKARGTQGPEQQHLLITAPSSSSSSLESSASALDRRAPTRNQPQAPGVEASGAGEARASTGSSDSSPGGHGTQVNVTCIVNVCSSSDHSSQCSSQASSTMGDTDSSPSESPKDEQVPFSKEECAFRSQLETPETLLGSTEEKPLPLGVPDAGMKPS
Procedure: (§1) As illustrated, cells were transfected with expression cassettes expressing labeled receptors or labeled ligands, receptor-expressing cells were mixed with ligand-expressing cells and cell-to-cell binding was monitored by detecting the labels associated with the receptor and the ligand. […] Binding was detected using an anti-mIgG2A ab and flow cytometry. The binding curves were fit and the Bmax, EC50, and hill coefficient were calculated using the equation Y=Bmax*Xh/(Kdh+Xh).

FAS expressed on cells = target: T6, FAS expressed on cells (human, UniProt P25445 26-335); assay: cell-cell screen, flow cytometry
T6 construct: whole, on cells
T6 sequence (looked up): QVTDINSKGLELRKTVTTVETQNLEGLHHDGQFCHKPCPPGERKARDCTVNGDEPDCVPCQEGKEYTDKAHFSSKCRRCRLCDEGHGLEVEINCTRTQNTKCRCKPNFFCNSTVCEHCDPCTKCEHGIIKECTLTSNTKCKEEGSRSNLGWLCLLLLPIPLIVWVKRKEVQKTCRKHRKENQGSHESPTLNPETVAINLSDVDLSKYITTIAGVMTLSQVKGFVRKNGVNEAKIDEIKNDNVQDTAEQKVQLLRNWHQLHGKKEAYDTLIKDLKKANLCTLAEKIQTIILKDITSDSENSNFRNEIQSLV
Procedure: as §1

Measured: binding result

T3 sequence (Q96PQ0 51-1159 limits assumed): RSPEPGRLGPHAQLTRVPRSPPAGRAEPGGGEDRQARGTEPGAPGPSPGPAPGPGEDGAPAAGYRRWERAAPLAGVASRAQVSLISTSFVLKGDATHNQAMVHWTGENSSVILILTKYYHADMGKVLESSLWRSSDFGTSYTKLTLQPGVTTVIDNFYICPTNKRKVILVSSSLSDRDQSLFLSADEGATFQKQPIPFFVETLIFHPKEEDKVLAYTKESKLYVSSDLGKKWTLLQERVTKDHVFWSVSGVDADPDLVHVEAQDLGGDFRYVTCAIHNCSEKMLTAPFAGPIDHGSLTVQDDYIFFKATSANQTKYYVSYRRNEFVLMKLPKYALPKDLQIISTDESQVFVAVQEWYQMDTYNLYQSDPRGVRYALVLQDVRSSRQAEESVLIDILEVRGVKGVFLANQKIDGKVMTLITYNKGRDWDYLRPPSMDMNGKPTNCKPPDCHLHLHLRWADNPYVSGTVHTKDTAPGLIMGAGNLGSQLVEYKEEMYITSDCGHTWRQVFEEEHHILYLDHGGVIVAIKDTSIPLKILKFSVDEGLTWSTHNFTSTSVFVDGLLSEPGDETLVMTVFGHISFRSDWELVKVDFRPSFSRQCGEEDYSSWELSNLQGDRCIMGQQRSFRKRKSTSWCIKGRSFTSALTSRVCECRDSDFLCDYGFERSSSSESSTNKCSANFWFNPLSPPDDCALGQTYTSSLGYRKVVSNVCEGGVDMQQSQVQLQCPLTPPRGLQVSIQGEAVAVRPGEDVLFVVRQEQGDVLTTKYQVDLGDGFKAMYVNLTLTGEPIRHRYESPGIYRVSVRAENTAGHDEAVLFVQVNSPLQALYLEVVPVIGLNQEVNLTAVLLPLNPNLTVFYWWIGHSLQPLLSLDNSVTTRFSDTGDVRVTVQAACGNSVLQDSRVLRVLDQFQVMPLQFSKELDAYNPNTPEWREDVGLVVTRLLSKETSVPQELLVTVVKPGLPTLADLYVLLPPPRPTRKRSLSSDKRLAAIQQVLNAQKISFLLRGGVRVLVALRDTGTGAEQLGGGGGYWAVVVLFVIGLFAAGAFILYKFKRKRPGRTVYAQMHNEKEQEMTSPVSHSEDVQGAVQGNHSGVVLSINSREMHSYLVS

B1: human B7-1 (CD80), full length, expressed on HEK 293 cells (ligand)
chain: VIHVTYEVKEVATLSCGHNVSVEELAQTRIYWQKEKKMVLTMMSGDMNIWPEYKNRTIFDITNNLSIVILALRPSDEGTYECVVLKYEKDAFKREHLAEVTLSVKADFPTPSISDFEIPTSNIRRIICSTSGGFPEPHLSWLENGEELNAINTTVSQDPETELYAVSSKLDFNMTTNHSFMCLIKYGHLRVNQTFNWNTTKQEHFPDNLLPSWAITLISVNGIFVICCLTYCFAPRCRERRRNERL
notes: also called hB7-1; B7-1-mCherry
no binding: [1] | [2] | [3] | [4] | TNFR2 expressed on cells | FAS expressed on cells
